# Data taken from patent US20060134737A1 (VLAAMS INTERUNIVERSITAIR INSTITUUT VOOR BIOTECHNOLOGIE VZW, published 2006).
# Molecular target: T1, cMyc-tagged Smurf2 (C716G), ligase inactive point mutant (UniProt Q9HAU4 1-748, limits assumed)
# T1 construct: whole, on cells; Expressed from pCAGGS in HEK293T cells; co-immunoprecipitation from lysates; also called cMyc-Smurf2 (C716G); c-myc-Smurf2(C716G); not shown: cMyc tag
# Assay: co-immunoprecipitation of TNF-R2 with utr-1 from HEK293T lysates without cotransfected TRAF2, anti-cMyc Western blot
# T1 sequence (Q9HAU4 whole entry C716G): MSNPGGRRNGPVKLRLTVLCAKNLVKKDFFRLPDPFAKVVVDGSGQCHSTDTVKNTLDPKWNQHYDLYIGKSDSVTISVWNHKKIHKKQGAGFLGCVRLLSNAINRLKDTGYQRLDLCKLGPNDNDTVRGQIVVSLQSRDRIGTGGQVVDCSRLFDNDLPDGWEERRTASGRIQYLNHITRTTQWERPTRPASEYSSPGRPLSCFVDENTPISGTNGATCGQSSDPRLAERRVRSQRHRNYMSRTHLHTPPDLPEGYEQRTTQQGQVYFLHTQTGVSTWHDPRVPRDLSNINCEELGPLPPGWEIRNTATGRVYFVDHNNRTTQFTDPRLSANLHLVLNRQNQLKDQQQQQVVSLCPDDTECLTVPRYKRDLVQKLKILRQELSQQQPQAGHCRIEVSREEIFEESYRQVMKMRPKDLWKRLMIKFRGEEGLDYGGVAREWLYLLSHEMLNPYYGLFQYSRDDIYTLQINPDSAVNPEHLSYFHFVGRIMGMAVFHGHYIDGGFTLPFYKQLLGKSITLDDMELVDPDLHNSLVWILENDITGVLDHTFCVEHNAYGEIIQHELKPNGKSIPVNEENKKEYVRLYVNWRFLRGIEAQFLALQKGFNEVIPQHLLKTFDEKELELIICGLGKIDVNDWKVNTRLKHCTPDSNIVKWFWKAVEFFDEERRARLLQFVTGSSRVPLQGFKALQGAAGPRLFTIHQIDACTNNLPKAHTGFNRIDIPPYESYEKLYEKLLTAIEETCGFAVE
binder,measurement,value
"TNF receptor 2 (TNF-R2) wild type, pcDNAI-hTNF-R2 (receptor, UniProt P20333 23-461, looked up, also called TNF-R2 WT) LPAQVAFTPYAPEPGSTCRLREYYDQTAQMCCSKCSPGQHAKVFCTKTSDTVCDSCEDSTYTQLWNWVPECLSCGSRCSSDQVETQACTREQNRICTCRPGWYCALSKQEGCRLCAPLRKCRPGFGVARPGTETSDVVCKPCAPGTFSNTTSSTDICRPHQICNVVAIPGNASMDAVCTSTSPTRSMAPGAVHLPQPVSTRSQHTQPTPEPSTAPSTSFLLPMGPSPPAEGSTGDFALPVGLIVGVTALGLLIIGVVNCVIMTQVKKKPLCLQREAKVPHLPADKARGTQGPEQQHLLITAPSSSSSSLESSASALDRRAPTRNQPQAPGVEASGAGEARASTGSSDSSPGGHGTQVNVTCIVNVCSSSDHSSQCSSQASSTMGDTDSSPSESPKDEQVPFSKEECAFRSQLETPETLLGSTEEKPLPLGVPDAGMKPS",binding result,no binding
